One test concerns the target HLA-A*02:01. The test is described as follows: IEDB peptide-MHC binding, purified MHC/competitive/fluorescence; filed as Kd, often an IC50 or EC50 that approximates it; ≥ and ≤ were set here for values at or beyond the usual limits of such assays.
In another test the target is HLA-A*02:03. Described as above.
The next test has as its target HLA-A*02:12. The description is as above.
The target of another test is HLA-A*02:16. The test is described as above.
The next test concerns the target HLA-A*02:19. The test is described as above.
The target in a further test is HLA-A*24:03. The description is as above.
For a further test, the target named is HLA-A*26:01. The description is as above.
Test [1] addresses HLA-A*31:01. Described as above. The following applies: source organism: Influenza A virus (A/Gf/HK/SSP607/2003(H9N2)).
The target in a further test is HLA-A*68:02. Described as above.
The next test addresses HLA-A*69:01. Described as above.
Test [2] concerns the target HLA-B*15:01. The test is described as above.
A further test addresses HLA-B*15:17. The test is described as above.
In the next test the target is HLA-B*18:01. The test is described as above.
The next test deals with HLA-B*27:03. Described as above.
For the next test, the target named is HLA-B*39:01. The test is described as above.
Test [3] addresses HLA-B*46:01. The description is as above.
The target of the next test is HLA-B*51:01. Described as above.
Test [4] has as its target HLA-B*57:01. The test is described as above.
A further test deals with HLA-A*01:01. The test is described as follows: IEDB peptide-MHC binding, purified MHC/direct/fluorescence; filed as Kd, often an IC50 or EC50 that approximates it; ≥ and ≤ were set here for values at or beyond the usual limits of such assays. To be noted: source organism: Camelpox virus M-96.
For test [5], the target named is HLA-A*31:01. Described as above. The following applies: source organism: Camelpox virus M-96.
Another test concerns the target HLA-B*07:02. The description is as above.
For test [6], the target named is HLA-B*15:01. The description is as above. To be noted: source organism: Camelpox virus M-96.
For test [7], the target named is HLA-B*27:05. Described as above. The following applies: source organism: Camelpox virus M-96.
The target in test [8] is HLA-B*46:01. The test is described as above. To be noted: source organism: Camelpox virus M-96.
The next test deals with HLA-B*48:01. The test is described as above. To be noted: source organism: Camelpox virus M-96.
Test [9] concerns the target HLA-B*57:01. The test is described as above. The following applies: source organism: Camelpox virus M-96.
Another test addresses HLA-B*58:01. The test is described as above. The following applies: source organism: Camelpox virus M-96.
For a further test, the target named is HLA-C*12:03. The description is as above. The following applies: source organism: Vaccinia virus WR.
The target in the next test is HLA-A*11:01. Put plainly: IEDB peptide-MHC binding, purified MHC/competitive/fluorescence; filed as Kd, often an IC50 or EC50 that approximates it; ≥ and ≤ were set here for values at or beyond the usual limits of such assays. The following applies: source organism: Vaccinia virus WR.
The target in another test is HLA-A*26:02. The description is as above. To be noted: source organism: Vaccinia virus WR.
The target of a further test is HLA-A*30:01. The test is described as above. The following applies: source organism: Vaccinia virus WR.
Another test deals with HLA-B*35:01. Described as above. To be noted: source organism: Vaccinia virus WR.
The target of test [10] is HLA-B*27:05. The test is described as above.
A further test addresses HLA-A*02:11. The test is described as above. The following applies: source organism: Brucella abortus S19.
In the next test the target is HLA-A*03:01. The test is described as above. The following applies: source organism: Brucella abortus S19.
A further test has as its target HLA-A*29:02. Described as above. The following applies: source organism: Brucella abortus S19.
The next test concerns the target HLA-A*24:02. The test is described as above.
In a further test the target is HLA-C*14:02. The test is described as follows: IEDB peptide-MHC binding, purified MHC/direct/fluorescence; filed as Kd, often an IC50 or EC50 that approximates it; ≥ and ≤ were set here for values at or beyond the usual limits of such assays. The following applies: source organism: Entamoeba histolytica HM-1:IMSS.
In a further test the target is HLA-C*15:02. Described as above. The following applies: source organism: Entamoeba histolytica HM-1:IMSS.
Where [11] appears, read: source organism: Influenza A virus (A/Gf/HK/SSP607/2003(H9N2)).
Setting [12] is: source organism: Vaccinia virus WR.
The mark [13] stands for this setting: source organism: Brucella abortus S19.

pKd: −log10 of the molar value. A value given as a limit tells only on which side of the number the result lay.

Take AMITYITRK: the pKd in the test with HLA-A*02:01 (setting [11]), in the test with HLA-A*02:03 (setting [11]), with HLA-A*02:12 (setting [11]), in the test with HLA-A*02:16 (setting [11]), with HLA-A*02:19 (setting [11]) and with HLA-A*24:03 (setting [11]) was no more than 4.70 throughout. In addition, the pKd (as a rule, −log10 of the Kd, conventionally taken in molar units) was no more than 4.70 with HLA-A*26:01 (setting [11]); 6.80 with HLA-A*31:01 [1]; no more than 4.70 with HLA-A*68:02 (setting [11]); no more than 4.70 with HLA-A*69:01 (setting [11]); no more than 4.70 with HLA-B*15:01 [2] (setting [11]); no more than 4.70 with HLA-B*15:17 (setting [11]). The pKd with HLA-B*18:01 (setting [11]), in the test with HLA-B*27:03 (setting [11]), with HLA-B*39:01 (setting [11]), with HLA-B*46:01 [3] (setting [11]), in the test with HLA-B*51:01 (setting [11]) and in the test with HLA-B*57:01 [4] (setting [11]) was no more than 4.70 throughout.
In the case of FVFEATKLY, the pKd with HLA-A*01:01 was no more than 4.70; with HLA-A*31:01 [5] it was no more than 4.70; in the test with HLA-B*07:02 (source organism: Camelpox virus M-96), no more than 4.70; with HLA-B*15:01 [6], 7.75; with HLA-B*27:05 [7] it was no more than 4.70; with HLA-B*46:01 [8], no more than 4.70. Also, the pKd was no more than 4.70 with HLA-B*48:01; no more than 4.70 with HLA-B*57:01 [9]; no more than 4.70 in the test with HLA-B*58:01; no less than 9.00 in the test with HLA-C*12:03; no more than 4.70 in the test with HLA-A*02:01 (setting [12]); 5.68 with HLA-A*11:01. Moreover, the pKd was 7.78 in the test with HLA-A*26:01 (setting [12]); 7.18 in the test with HLA-A*26:02; no more than 4.70 in the test with HLA-A*30:01; 7.30 with HLA-A*68:02 (setting [12]); 6.92 with HLA-B*15:17 (setting [12]); 8.24 with HLA-B*35:01.
On to GKLNRLIGK, for which, in the test with HLA-B*27:05 [10] (source organism: Influenza A virus (A/Hong Kong/CUHK13527/2003(H3N2))), the negative-log Kd (pKd) was 5.74.
On to KQWIVAGAI, for which the pKd is 8.77 in the test with HLA-A*02:01 (setting [13]); no more than 4.70 with HLA-A*02:03 (setting [13]); no less than 10.00 with HLA-A*02:11; no more than 4.70 with HLA-A*02:12 (setting [13]); no more than 4.70 in the test with HLA-A*02:19 (setting [13]); no more than 4.70 with HLA-A*03:01. Also, the pKd in the test with HLA-A*24:03 (setting [13]), with HLA-A*26:01 (setting [13]), in the test with HLA-A*29:02, with HLA-A*68:02 (setting [13]), with HLA-A*69:01 (setting [13]) and in the test with HLA-B*15:01 [2] (setting [13]) was no more than 4.70 each time. Moreover, the pKd in the test with HLA-B*15:17 (setting [13]), with HLA-B*18:01 (setting [13]), with HLA-B*27:03 (setting [13]), with HLA-B*39:01 (setting [13]), in the test with HLA-B*46:01 [3] (setting [13]) and with HLA-B*51:01 (setting [13]) was no more than 4.70 in each case. This sequence gave a pKd in the test with HLA-B*57:01 [4] (setting [13]) of no more than 4.70.
Consider KQWRGDKML, for which the pKd with HLA-B*27:05 [10] (source organism: Bacillus thuringiensis str. Al Hakam) was 7.07.
In the test with HLA-A*24:02 (source organism: Influenza A virus (A/goose/Guangdong/1/1996(H5N1))), KYNGIITDTI had a pKd of 9.70.
As for PYMSALFWI, the pKd with HLA-A*24:02 (source organism: Cryptosporidium parvum Iowa II) was 9.10.
As to RLTGREGAV, the pKd in the test with HLA-B*07:02 (source organism: Pseudomonas aeruginosa) is 5.15; with HLA-A*02:16 (source organism: Pseudomonas aeruginosa PACS2) it was 6.46.
As for RYSGFVRTLF, in the test with HLA-A*24:02 (source organism: Influenza A virus (A/turkey/Ohio/313053/2004(H3N2))), the pKd was no less than 10.00.
Consider SWLYNYFVF, for which the pKd with HLA-C*14:02 is 6.36; with HLA-C*15:02 it was no more than 4.70; with HLA-A*24:02 (source organism: Entamoeba histolytica HM-1:IMSS) it was 9.52.
